Experimental data published in patent US11479580B2, “Polypeptide expressed in the stratum corneum and use thereof” (CENTRE NATIONAL DE LA RECHERCHE SCIENTIFIQUE—CNRS, priority 2010, dated 2022).

B1: LCE6A-His: recombinant LCE6A possessing a C-terminal histidine tag (protein, UniProt A0A183 1-80, looked up)
Late cornified envelope …: MSQQKQQSWKPPNVPKCSPPQRSNPCLAPYSTPCGAPHSEGCHSSSQRPEVQKPRRARQKLRCLSRGTTYHCKEEECEGD
modifications: His tag
B2: LCE6A: polypeptide of 80 amino acids of the Late Cornified Envelope family, expressed in the epidermis (protein, listed as Homo sapiens)
chain: B1 Late cornified envelope …

How the values were obtained:
transglutaminase 3 = biological target: T1, transglutaminase 3 (Homo sapiens, UniProt Q08188); assay: In-vitro transglutaminase 3 binding assay (TGM3); assay type: biochemical
T1 construct: purchased R&D Systems
T1 sequence (Q08188 1-693): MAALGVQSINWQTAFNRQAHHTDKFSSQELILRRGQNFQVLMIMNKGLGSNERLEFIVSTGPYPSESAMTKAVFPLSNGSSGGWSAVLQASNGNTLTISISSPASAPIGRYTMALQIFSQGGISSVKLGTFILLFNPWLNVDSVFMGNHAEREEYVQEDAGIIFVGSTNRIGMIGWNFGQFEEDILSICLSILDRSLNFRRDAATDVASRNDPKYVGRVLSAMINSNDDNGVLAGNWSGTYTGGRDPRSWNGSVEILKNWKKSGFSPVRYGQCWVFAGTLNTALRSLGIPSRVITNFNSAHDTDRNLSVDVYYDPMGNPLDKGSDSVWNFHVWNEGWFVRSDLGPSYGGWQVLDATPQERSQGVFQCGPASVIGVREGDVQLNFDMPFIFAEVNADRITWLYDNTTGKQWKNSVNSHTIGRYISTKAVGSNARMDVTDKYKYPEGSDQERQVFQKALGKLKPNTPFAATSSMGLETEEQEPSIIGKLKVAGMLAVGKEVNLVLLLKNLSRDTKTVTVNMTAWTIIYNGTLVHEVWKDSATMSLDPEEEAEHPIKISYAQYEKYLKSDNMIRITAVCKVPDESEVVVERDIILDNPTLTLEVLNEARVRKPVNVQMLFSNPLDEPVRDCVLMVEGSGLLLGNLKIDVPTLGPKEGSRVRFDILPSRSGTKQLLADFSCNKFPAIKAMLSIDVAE
Procedure: A binding assay of LCE6A by transglutaminase 3 (human recombinant transglutaminase 3, R&D Systems) was performed in vitro. These assays are carried out according to the same experimental protocol as that described in example 4 paragraph 2 with transglutaminase 2.
(§1) In a first experiment, the applicant tested the capacity of TGM3 to form bridges between LCE-His and monodansyl cadaverine (MDC). For this, TGM3 (10 ng/μL) was incubated in the presence of 0.35 μg of LCE6A-His in solution in a buffer 50 mM Tris, 100 mM DTT, pH 7.4, with addition of 10 mM CaCl2 and 500 μM MDC (Fluka). After incubation for 2 h or 18 h at 37° C., the reaction is stopped by adding EDTA to final 25 mM. The negative control corresponds to the same experiment performed in the absence of CaCl2 and in the presence of 100 mM of ETDA after incubation for 18 h. The reaction product is separated by SDS-PAGE 15%, then visualized by illumination with UV.
In a second experiment, the applicant tested the capacity of TGM3 to form bridges of LCE6A with itself. For this, TGM3 (10 ng/μL) was incubated in the presence of 0.35 μg of LCE6A-His in a buffer 50 mM Tris, 100 mM DTT, pH 7.4, with addition of 10 mM CaCl2. After incubation for 2 h or 18 h at 37° C., the reaction is stopped by adding EDTA to final 25 mM. The negative control corresponds to the same experiment performed in the absence of CaCl2 and in the presence of 100 mM of ETDA after incubation for 18 h. The reaction product is separated by SDS-PAGE 15% and transferred onto a nitrocellulose membrane. The intermolecular bonds are visualized by Western Blot as described above with an anti-His antibody (mouse monoclonal IgG1 “Tetra-His antibody”, Qiagen).

transglutaminase 2 = biological target: T2, transglutaminase 2 (UniProt P08587); assay: In-vitro transglutaminase 2 binding assay (TGM2); assay type: biochemical, guinea pig
T2 construct: transglutaminase purified from guinea pig liver; purchased Sigma T5398; host or cells: guinea pig liver
T2 sequence (P08587 1-690): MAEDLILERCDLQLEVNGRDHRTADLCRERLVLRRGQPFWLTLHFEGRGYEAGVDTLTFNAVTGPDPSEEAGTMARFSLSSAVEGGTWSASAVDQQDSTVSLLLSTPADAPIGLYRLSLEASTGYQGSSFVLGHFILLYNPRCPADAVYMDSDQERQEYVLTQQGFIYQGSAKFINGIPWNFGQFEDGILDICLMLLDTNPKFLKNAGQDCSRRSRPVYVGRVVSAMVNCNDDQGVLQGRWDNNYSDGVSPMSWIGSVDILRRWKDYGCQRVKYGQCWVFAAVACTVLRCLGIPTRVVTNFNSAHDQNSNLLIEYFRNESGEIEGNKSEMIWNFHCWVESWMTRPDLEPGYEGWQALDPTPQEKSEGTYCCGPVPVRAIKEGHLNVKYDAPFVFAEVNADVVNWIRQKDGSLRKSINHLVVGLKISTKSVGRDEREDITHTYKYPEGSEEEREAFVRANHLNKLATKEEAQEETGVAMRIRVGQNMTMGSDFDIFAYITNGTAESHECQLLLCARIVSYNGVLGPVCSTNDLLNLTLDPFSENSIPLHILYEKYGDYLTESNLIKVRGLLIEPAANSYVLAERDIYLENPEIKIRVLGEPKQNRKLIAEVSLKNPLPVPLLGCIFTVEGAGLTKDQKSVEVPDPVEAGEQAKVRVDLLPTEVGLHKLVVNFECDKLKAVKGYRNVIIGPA
Procedure: A binding assay of LCE6A by transglutaminase 2 (transglutaminase purified from guinea pig liver, Sigma T5398) was performed in vitro.
as §1, with “capacity of TGM2 to form” for “capacity of TGM3 to form”, “LCE-His and a molecule bearing an amine bond, monodansyl cadaverine” for “LCE-His and monodansyl cadaverine”, “For this, TGM2 (10 ng/μL)” for “For this, TGM3 (10 ng/μL)”
In a second experiment, the applicant also tested the capacity of TGM2 to form bridges of LCE6A with itself. For this, TGM2 (10 ng/μL) was incubated in the presence of 0.35 μg of LCE6A-His in a buffer 50 mM Tris, 100 mM DTT, pH 7.4, with addition of 10 mM CaCl2. After incubation for 2 h or 18 h at 37° C., the reaction is stopped by adding EDTA to final 25 mM. The negative control corresponds to the same experiment performed in the absence of CaCl2 and in the presence of 100 mM of ETDA after incubation for 18 h. The reaction product is separated by SDS-PAGE 15% and transferred onto a nitrocellulose membrane. The intermolecular bonds are visualized by Western Blot as described above with an anti-His antibody (mouse monoclonal IgG1 “Tetra-His antibody”, Qiagen).

[1] = 100 mM EDTA, absence of calcium, 18 h
[2] = absence of calcium, 100 mM EDTA

Molecule | capacity of TGM3 to form bridges between LCE-His and MDC, fluorescent bands, negative control (transglutaminase 3; [1]) | capacity of TGM3 to form bridges between LCE-His and monodansyl cadaverine (MDC), fluorescent bands after SDS-PAGE under UV (transglutaminase 3; TGM3 10 ng/μL, 10 mM CaCl2, 500 μM MDC, starting from 2 h of incubation at 37° C.) | capacity of TGM3 to form bridges of LCE6A with itself, Western Blot with anti-His antibody (transglutaminase 3; TGM3 10 ng/μL, 10 mM CaCl2, 2 h or 18 h at 37° C.) | capacity of TGM3 to form bridges of LCE6A with itself, Western Blot, negative control (transglutaminase 3; [2]) | capacity of TGM2 to form bridges between LCE-His and MDC, fluorescent bands, negative control (transglutaminase 2; [1]) | capacity of TGM2 to form bridges between LCE-His and monodansyl cadaverine (MDC), fluorescent bands after SDS-PAGE under UV (transglutaminase 2; TGM2 10 ng/μL, 10 mM CaCl2, 500 μM MDC, starting from 2 h of incubation at 37° C.) | capacity of TGM2 to form bridges of LCE6A with itself, Western Blot with anti-His antibody (transglutaminase 2; TGM2 10 ng/μL, 10 mM CaCl2, 2 h or 18 h at 37° C.) | capacity of TGM2 to form bridges of LCE6A with itself, Western Blot, negative control (transglutaminase 2; [2]) | substrate of transglutaminase 3 (conclusion) (transglutaminase 3) | substrate of transglutaminase 2 (conclusion) (transglutaminase 2)
B1 | No fluorescent band, apart from that corresponding to the free MDC, is detected | several fluorescent bands were detected | several bands of higher molecular weight migrating to a size equivalent to dimers or multimers of LCE6A-His | Only the band corresponding to monomeric LCE6A-His is detected | No fluorescent band, apart from that corresponding to the free MDC, is detected | several fluorescent bands were detected | several bands of higher molecular weight migrating to a size equivalent to dimers or multimers of LCE6A-His | Only the band corresponding to monomeric LCE6A-His is detected | – | –
B2 | – | – | – | – | – | – | – | – | substrate of transglutaminase 3 | substrate of transglutaminase 2
